The text below walks through data of article PMC7515726 (Nucleic Acids Research, 2020).

This experiment concerns the target FLAG-hH2A.D wild-type nucleosome, 147 bp 601 DNA (ELYS pulldowns) (human, UniProt P20671;P62807;Q71DI3;P62805). The experiment is described as follows: pull-down.

B1: MBP-His6-TEV-ELYS^C, C-terminal fragment of human ELYS (2157-2275) (domain or fragment)
chain: SSQFVISPPALRSRQKNTSNKNKLEDELKDDAQSVETLGKPKAKRIRTSKTKQASKNTEKESAWSPPPIEIRLISPLASPADGVKSKPRKTTEVTGTGLGRNRKKLSSYPKQILRRKML
In the case of B1, the binding result is listed as “binds”.
